Values of other authors, collected in publication PMC3791837.

Target: FcγRIIA (Homo sapiens) (UniProt P12318)
Assay: confocal analysis of transfected cells

Chain of UniProt P12318 (P12318 34-217): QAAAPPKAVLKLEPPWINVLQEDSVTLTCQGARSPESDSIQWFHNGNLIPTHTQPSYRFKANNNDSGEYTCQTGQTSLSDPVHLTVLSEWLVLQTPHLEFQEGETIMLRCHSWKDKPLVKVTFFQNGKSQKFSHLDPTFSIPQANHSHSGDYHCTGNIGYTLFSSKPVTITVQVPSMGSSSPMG

Kd: 3.7 µM
Substance: CRP (from UniProt P02741)
